In patent US20180008672A1, “ANTI-ACTIVIN A ANTIBODIES AND METHODS OF USE THEREOF FOR TREATING PULMONARY ARTERIAL HYPERTENSION” (Regeneron Pharmaceuticals, Inc., priority 2016, published 2018):

Tested on: rat model of pulmonary hypertension induced by monocrotaline
Test: rat model of pulmonary hypertension induced by monocrotaline
Format: in vivo, rat (Sprague Dawley)
Experimental: To further evaluate the effect of anti-Activin A antibodies in pulmonary arterial hypertension, a rat model of pulmonary hypertension induced by monocrotaline was used.
Six to seven week old Sprague Dawley rats were used. Rats were separated into treatment groups such that body weights were similar among different groups. Rats were subcutaneously administered either 40 mg/kg of monocrotaline or 5 mL/kg of saline at day 0. At 14 days post injection, saline-injected rats were orally dosed with PEG 400 (at 50:50 v/v, Affymetrix Inc., #19957) at 5 mL/kg daily for two weeks, and monocrotaline-injected rats were separated into 5 groups with a group (n=9) orally dosed with PEG 400 at 5 mL/kg daily for two weeks, another group (n=12) orally administered macintentan at 30 mg/kg daily for two weeks, and three groups that were both orally dosed with PEG 400 at 5 mL/kg daily for two weeks and subcutaneously treated with either anti-Activin A antibodies, H4H10430P (n=9), H4H10446P2 (n=11), or an isotype control antibody (n=10) at 40 mg/kg twice a week for two weeks.
At day 27, pulmonary artery size and right ventricular function and dimensions of the rats were assessed using a high frequency ultrasound system (Vevo 2100, VisualSonics). For the assessment, rats were anesthetized (with 1.5% isoflurane at a rate of 1.0 cc/mL of medical grade air) and their temperature was monitored with a rectal temperature probe and held at approximately 37° C. with a heated platform (Vevo 2100, Visualsonics) and a warming lamp. Both brightness-mode (B-mode) and motion-mode (M-mode) imaging were used. B-mode imaging of the rat heart in cross-section was used to determine pulmonary artery cross-sectional area (PA CSA) at the level of the pulmonary valve. […] was used to determine the pulsed wave velocity time integral (VTI), which is derived from the area under the curve of representative Doppler tracings of blood flow through the pulmonary artery. Right ventricular stroke volume (RV SV) was calculated from the product of PA CSA and VTI. Right ventricular cardiac output (RV CO) was calculated from the product of SV and heart rate (HR). M-mode imaging was used to determine right ventricular free wall (RVFW) thickness during diastole and systole. […]
Right ventricular pressure was subsequently assessed for all treatment groups. […] The catheter was connected to pressure/volume instrument (MPVS-300, Millar Instruments, Inc.) that measured heart rate as well as both diastolic and systolic right ventricular pressures. […] Readings were quantified from a 60 second interval of the pressure tracing (following a 2 minute period of recording to allow for pressure stabilization). The parameters analyzed were RV diastolic and systolic pressures, heart rate and ventricular contractile function. […]

[1] = monocrotaline 40 mg/kg SC day 0, antibodies 40 mg/kg SC 2x/wk, macitentan 30 mg/kg PO daily from day 14 for two weeks, ultrasound day 27

B1: H4H10430P: fully human anti-Activin A antibody, human IgG4 Fc; HCVR/LCVR SEQ ID NOs 66/74 (antibody, V domains shown)
VH: EVQLVESGGGLVQPGRSLRLSCKASGFAFDDFAMHWVRQAPGKGLEWVSGIVWNSGDIGYADSVKGRFTISRDNAKNSLYLQLNSLRTEDTALYFCVKDMVRGLMGFNYYGMDVWGQGTTVTVSS
VL: EIVLTQSPATLSLSPGERATLSCRASQTISTYLVWYRQRPGQAPSLLIYDASNRATDIPARFSGSGSGTDFTLTISSLEPEDFAVYYCQQRSNWPITFGQGTRLEIK
PA CSA (Ave ± SEM) [1]: 9.439 ± 0.516%% mm^2 | Right Ventricular cardiac output (Ave ± SEM) [1]: 130.0 ± 12.5 mL/min | Stroke Volume (Ave ± SEM), right ventricular [1]: 362.8 ± 32.6 µL | effect on PA CSA (in words) (monocrotaline-injected rats, FIG. 3A): restored PA CSA to values measured for saline-injected PEG 400 dosed rats
